# In IntAct's records for PubMed 17540176:
# B1: Serine/threonine-protein phosphatase 2A 65 kDa regulatory subunit A beta isoform (Homo sapiens), P30154 (parent)
# chain: MAGASELGTGPGAAGGDGDDSLYPIAVLIDELRNEDVQLRLNSIKKLSTIALALGVERTRSELLPFLTDTIYDEDEVLLALAEQLGNFTGLVGGPDFAHCLLPPLENLATVEETVVRDKAVESLRQISQEHTPVALEAYFVPLVKRLASGDWFTSRTSACGLFSVCYPRASNAVKAEIRQQFRSLCSDDTPMVRRAAASKLGEFAKVLELDSVKSEIVPLFTSLASDEQDSVRLLAVEACVSIAQLLSQDDLETLVMPTLRQAAEDKSWRVRYMVADRFSELQKAMGPKITLNDLIPAFQNLLKDCEAEVRAAAAHKVKELGENLPIEDRETIIMNQILPYIKELVSDTNQHVKSALASVIMGLSTILGKENTIEHLLPLFLAQLKDECPDVRLNIISNLDCVNEVIGIRQLSQSLLPAIVELAEDAKWRVRLAIIEYMPLLAGQLGVEFFDEKLNSLCMAWLVDHVYAIREAATNNLMKLVQKFGTEWAQNTIVPKVLVMANDPNYLHRMTTLFCINALSEACGQEITTKQMLPIVLKMAGDQVANVRFNVAKSLQKIGPILDTNALQGEVKPVLQKLGQDEDMDVKYFAQEAISVLALA
# B2: Serine/threonine-protein phosphatase 2A 65 kDa regulatory subunit A beta isoform (Homo sapiens), P30154 (parent)
# chain: B1 chain
# partner: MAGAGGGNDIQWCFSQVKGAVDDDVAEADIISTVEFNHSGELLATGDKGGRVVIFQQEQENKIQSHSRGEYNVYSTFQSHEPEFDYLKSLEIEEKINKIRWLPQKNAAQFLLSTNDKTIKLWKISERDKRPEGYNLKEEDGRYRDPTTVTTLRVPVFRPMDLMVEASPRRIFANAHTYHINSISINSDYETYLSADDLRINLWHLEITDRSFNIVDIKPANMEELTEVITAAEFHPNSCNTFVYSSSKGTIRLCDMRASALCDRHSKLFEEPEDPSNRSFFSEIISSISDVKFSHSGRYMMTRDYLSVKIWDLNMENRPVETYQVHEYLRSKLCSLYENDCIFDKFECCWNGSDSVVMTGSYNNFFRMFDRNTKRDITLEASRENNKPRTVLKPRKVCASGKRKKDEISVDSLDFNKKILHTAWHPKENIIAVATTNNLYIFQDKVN
# B3: Serine/threonine-protein phosphatase 2A 65 kDa regulatory subunit A beta isoform (Homo sapiens), P30154 (parent)
# chain: B1 chain
# partner: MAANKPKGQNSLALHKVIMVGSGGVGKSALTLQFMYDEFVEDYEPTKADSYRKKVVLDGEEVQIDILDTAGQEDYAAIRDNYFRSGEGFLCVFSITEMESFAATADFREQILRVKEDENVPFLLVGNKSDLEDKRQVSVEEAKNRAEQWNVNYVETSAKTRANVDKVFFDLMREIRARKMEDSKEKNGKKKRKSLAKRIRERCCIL
# B4: Ras-related protein Ral-A (Homo sapiens), P11233 (parent)
# chain: B3 partner
# Variants of: B1
# Settings: with pp2aa_human PPP2CA
row,effect of a mutation on the interaction,Variant
1,decreasing interaction,L101P;V448A
2,decreasing interaction,L101P
3,decreasing interaction,V448A

# Variants of: B1
# Settings: with 2a5a_human PPP2R5A
row,effect of a mutation on the interaction,Variant
1,decreasing interaction,L101P;V448A
2,decreasing interaction,L101P
3,decreasing interaction,V448A

# Variants of: B1
# Settings: with 2a5g_human PPP2R5C
row,Variant,effect of a mutation on the interaction
1,L101P,decreasing interaction
2,V448A,decreasing interaction
3,V545A,decreasing interaction

# The remaining lines, values ahead:
row,effect of a mutation on the interaction,Variant
1,decreasing interaction,L101P;V448A
2,decreasing interaction,K343E
3,decreasing interaction,D504G

# Variants of: B1
# Settings: with 2a5d_human PPP2R5D
row,effect of a mutation on the interaction,Variant
1,decreasing interaction,L101P;V448A
2,decreasing interaction,L101P
3,decreasing interaction,V448A
4,decreasing interaction,V545A

# Variants of: B2
# Settings: with 2aba_human PPP2R2A
row,effect of a mutation on the interaction,Variant
1,decreasing interaction,L101P;V448A

# Variants of: B3
# Settings: with rala_human RALA
row,effect of a mutation on the interaction,Variant
1,decreasing interaction,V448A
2,decreasing interaction,G8R
3,decreasing interaction,V545A

# Variants of: B4
# Settings: with 2aab_human PPP2R1B
row,effect of a mutation on the interaction,Variant
1,decreasing interaction,MAANKPKGQNSLALHKVIMVGSGGVGKSALTLQFMYDEFVEDYEPTKADSYRKKVVLDGEEVQIDILDTAGQEDYAAIRDNYFRSGEGFLCVFSITEMESFAATADFREQILRVKEDENVPFLLVGNKSDLEDKRQVSVEEAKNRAEQWNVNYVETSAKTRANVDKVFFDLMREIRARKMEDSKEKNGKKKRKALAKRIRERCCIL [S194A]
2,decreasing interaction,MAANKPKGQNSLALHKVIMVGSGGVGKSALTLQFMYDEFVEDYEPTKADSYRKKVVLDGEEVQIDILDTAGQEDYAAIRDNYFRSGEGFLCVFSITEMESFAATADFREQILRVKEDENVPFLLVGNKSDLEDKRQVSVEEAKNRAEQWNVNYVETSAKTRANVDKVFFDLMREIRARKMEDAKEKNGKKKRKSLAKRIRERCCIL [S183A]
